In patent publication US20130210151:

How the values were obtained:
TevN201-ZFE (synthetic) = test: cell_activity
I-BmoI = test: cleavage_in_vitro; settings: one-site plasmid; two-site 0.096
I-BmoI, sequence (chain, as listed by the source): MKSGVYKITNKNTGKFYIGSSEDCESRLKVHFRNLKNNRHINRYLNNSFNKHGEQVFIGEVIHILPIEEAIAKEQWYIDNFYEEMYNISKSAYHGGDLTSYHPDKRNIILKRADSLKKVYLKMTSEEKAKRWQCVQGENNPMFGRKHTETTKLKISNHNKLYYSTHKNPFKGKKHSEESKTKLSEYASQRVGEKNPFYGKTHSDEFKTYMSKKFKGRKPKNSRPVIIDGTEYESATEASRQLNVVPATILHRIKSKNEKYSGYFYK

TevN201-ZFE (synthetic), sequence (chain, as listed by the source): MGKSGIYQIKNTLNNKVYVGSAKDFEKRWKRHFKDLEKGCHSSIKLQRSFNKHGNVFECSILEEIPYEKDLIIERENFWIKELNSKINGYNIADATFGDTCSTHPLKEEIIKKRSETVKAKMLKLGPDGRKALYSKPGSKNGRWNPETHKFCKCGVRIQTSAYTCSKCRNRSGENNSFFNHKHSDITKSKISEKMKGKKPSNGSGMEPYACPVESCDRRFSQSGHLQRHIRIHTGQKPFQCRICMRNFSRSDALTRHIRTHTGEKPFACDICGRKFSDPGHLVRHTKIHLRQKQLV

p11-lacY-wtx1 plasmid without target site
activity (TevN201-ZFE (synthetic)): 0 % survival

pBmoIHS thyA homing site plasmid
activity (I-BmoI): 0.105 s-1 (kobs)
